Drawing on ChEMBL document CHEMBL6109039, “Designed and synthesized novel tripeptides targeting diabetes and its related pathologies” (Eur J Med Chem, 2025), this text covers Vmax and Km for one protein.

Compound in data set [1]: N=C(N)NCCC[C@H](N)C(=O)N[C@@H](Cc1c[nH]c2ccccc12)C(=O)N[C@@H](Cc1c[nH]c2ccccc12)C(=O)O
Description: Inhibition of porcine pancreatic Alpha-amylase using starch as substrate assessed as maximum velocity pre-incubated for 20 mins followed by substrate addition and measured after 15 mins by Lineweaver-Burk plot analysis (reference value: 0.666). The conditions noted are these: Sus scrofa; time 35.0 min.

Compound in data set [2]: N=C(N)NCCC[C@H](N)C(=O)N[C@@H](Cc1c[nH]c2ccccc12)C(=O)N[C@@H](Cc1c[nH]c2ccccc12)C(=O)O
Description: Inhibition of porcine pancreatic Alpha-amylase using starch as substrate assessed as Km pre-incubated for 20 mins followed by substrate addition and measured after 15 mins by Lineweaver-Burk plot analysis (reference value: 0.657 mM). The conditions noted are these: Sus scrofa; time 35.0 min.

B1: Pancreatic alpha-amylase (Sus scrofa), P00690 (protein)
chain: MKLFLLLSAFGFCWAQYAPQTQSGRTSIVHLFEWRWVDIALECERYLGPKGFGGVQVSPPNENIVVTNPSRPWWERYQPVSYKLCTRSGNENEFRDMVTRCNNVGVRIYVDAVINHMCGSGAAAGTGTTCGSYCNPGNREFPAVPYSAWDFNDGKCKTASGGIESYNDPYQVRDCQLVGLLDLALEKDYVRSMIADYLNKLIDIGVAGFRIDASKHMWPGDIKAVLDKLHNLNTNWFPAGSRPFIFQEVIDLGGEAIQSSEYFGNGRVTEFKYGAKLGTVVRKWSGEKMSYLKNWGEGWGFMPSDRALVFVDNHDNQRGHGAGGASILTFWDARLYKVAVGFMLAHPYGFTRVMSSYRWARNFVNGQDVNDWIGPPNNNGVIKEVTINADTTCGNDWVCEHRWRQIRNMVWFRNVVDGQPFANWWANGSNQVAFGRGNRGFIVFNNDDWQLSSTLQTGLPGGTYCDVISGDKVGNSCTGIKVYVSSDGTAQFSISNSAEDPFIAIHAESKL
Consider B1, for which the Vmax in data set [1] was determined as 0.574. For the same protein, the Km (in general, the substrate concentration at which the rate is half of its maximum) in data set [2] is 704 µM.
